Earlier results as cited in paper PMC11178655, “Dosimetry and pharmacokinetics of [^177Lu]Lu-satoreotide tetraxetan in patients with progressive neuroendocrine tumours” (European Journal of Nuclear Medicine and Molecular Imaging, 2024).

What was measured:
patients with NETs = conditions: human, in vivo; cited from earlier work
Excerpt: In the present study, we observed tumour ADCs of 5.0 Gy/GBq after cycle 1 and 4.0 Gy/GBq after cycle 3. These tumour ADCs are consistent with previously reported findings from a direct comparison of [^177Lu]Lu-satoreotide tetraxetan and [^177Lu]Lu-DOTA-TATE in the same tumours and patients in a cross-over design, which reported median tumour dose of [^177Lu]Lu-satoreotide tetraxetan of 7.0 Gy/GBq (range: 4.2–29 Gy/GBq), 3.5 times greater than the median tumour dose of [^177Lu]Lu-DOTA-TATE [22]. However, it should be noted that median tumour dose in this pilot study was calculated from a limi ... || The median ADC of [^177Lu]Lu-satoreotide tetraxetan for the bone marrow using a blood-based approach was lower than reported in other [^177Lu]Lu-satoreotide tetraxetan studies. The result is, however, similar to the mean blood-based radiation ADCs for the bone marrow reported for [^177Lu]Lu-DOTA-TATE [32].

[1] = in vivo; cited from earlier work
Excerpt: In addition, consistent with their specific binding to SSTR, both [^177Lu]Lu-satoreotide tetraxetan and [^177Lu]Lu-DOTA-TATE predominantly show uptake in tumours, followed by the kidneys, spleen, and liver.

## [^177Lu]Lu-DOTA-TATE
Patients with NETs
  Blood-based bone marrow ADC: ≤ 0.02 Gy/GBq
  Image-based bone marrow ADC: up to 0.06 Gy/GBq
  Median absorbed dose to the tumour: 4.6 Gy/GBq
[1]
  Mean terminal blood half-life: 72 h
